Measurements as given in article PMC10654658, “The structural and functional investigation into an unusual nitrile synthase” (Nature Communications, 2023).

Molecular target: AetD nitrile synthase (Aetokthonos hydrillicola)
Assay: SEC; Superdex 200 10/300 GL; 100 uL of 10 mg/mL AetD in 25 mM Tris-HCl pH 7.5, 150 mM NaCl; flow rate 0.2 mL/min; mass estimated from protein markers

## AetD nitrile synthase (from UniProt A0A861B387 1-239) (enzyme)
  stoichiometry N: 2
